Measured values as given in US10533231B2, “Artificial bioluminescent enzyme” (NATIONAL INSTITUTE OF ADVANCED INDUSTRIAL SCIENCE AND …, priority 2012, dated 2020).

What was measured:
[1] = tested on: COS-7 cells; assay: Luminescence intensity of tag-containing ALucs secreted into medium (Example 1-21); type: cell-based; settings: culturing one day, Promega kit with nCTZ
Protocol: To compare the luminescence intensity of novel luciferases, a comparison experiment was performed under the same conditions as Example 1-2 (COS-7 cells, culturing for one day, using an assay kit produced by Promega) (FIG. 21 (B)). Finally, the luminescence intensity of each luciferase secreted into the medium was compared using an assay kit (containing native coelenterazine (nCTZ)) produced by Promega.

[2] = Temporal change in luminescence after substrate injection, medium 25 days after expression (Example 1-19); type: biochemical
Protocol: 50 μL of an assay solution (containing native coelenterazine, produced by Promega) was added to 5 μL of each medium 25 days after the expression, and the luminescence value (enzymatic activity) was measured using an LAS-4000 (produced by FujiFilm).

[3] = Prolonged activity stability of ALucs secreted in medium (Example 1-19); type: physicochemical; settings: for prolonged enzymatic activity stability: Day 0 to Day 25
Protocol: The prolonged activity stability of the artificial luciferases (ALucs) developed in the present invention was examined. First, a plasmid expressing each artificial luciferase (ALuc16, ALuc22, ALuc23, ALuc24, ALuc25, and ALuc30) (in the figure, each is referred to as A16, A22, A23, A24, A25, and A30) was introduced into COS-7 cells, and then culturing was continued for 24 hours. By the culturing, each artificial luciferase was secreted into the medium. The artificial luciferase secreted in the medium was collected, and a difference in enzymatic activity was measured under the same conditions in the following manner. On the first day (Day 0), 50 μL of assay solution (containing native coelenterazine, produced by Promega) was added to 5 μL of each medium, and the luminescence value (enzymatic activity) was measured using an LAS-4000 (produced by FujiFilm). In the same manner, the luminescence value on Day 8, Day 16, and Day 25 was compared with the luminescence value on Day 0 (FIG. 19 (A)).

[4] = tested on: COS-7 cells; assay: Luminescence of ALuc25 to ALuc32 in lysate and medium (Example 1-18); type: cell-based; settings: 20 hours after plasmid introduction
Protocol: After the insertion of a gene encoding an enzyme sequence as mentioned above into a mammalian expression vector (pcDNA3.1 (+)), each plasmid was introduced into COS-7 cells. By the transformation of these cells, each luciferase was expressed, and some of the luciferase was secreted out of the cells and some of the luciferase retained in the cells. 20 hours after the plasmid introduction, media of the cells were sampled, and the remaining cells were lysed with a lysis buffer (lysate preparation). Immediately after 50 μL of assay solution (containing a substrate) was simultaneously added to each prepared medium (5 μL) or lysate (5 μL), the luminescence value was measured using a luminescence analyzer (LAS-4000; FujiFilm) (n=3) (FIG. 18).

[5] = tested on: COS-7 cells; assay: Enzymatic activity confirmation of ALuc (section 3-1, 3-2); type: cell-based, African monkey; settings: vs conventional copepod luciferases
Protocol: First, using a known lipid reagent for gene introduction, an expression vector encoding ALuc is introduced into African monkey-derived COS-7 cells; as a control, an expression vector having a known GLuc without any mutation into the cells is also introduced in the same manner. At a predetermined time (from 10 to 20 hours, for example, 16 hours) after the introduction of the vector, a cell lysate is prepared using a known lysis reagent.
Thereafter, the cell lysate is mixed with a known substrate solution containing coelenterazine, and its color intensity, temporal stability in luminescence, etc., are measured.
The luminescence intensity may be found by measuring the intensity at a specific wavelength using a known luminescence spectrophotometer after addition of a known substrate. By performing the measurement every minute, the temporal stability in luminescence can be evaluated. To measure a shift to a longer wavelength, scanning of the entire wavelength is necessary.

[6] = tested on: COS-7 cells; assay: Luminescence characteristics of tag-containing ALucs (Example 1-22); type: cell-based; settings: medium two days after gene transfer
Protocol: To compare the relative luminescence intensity of these luciferases, the following experiment was conducted. First, a gene encoding each luciferase was subcloned into pcDNA3.1 (+), which is a eukaryotic expression vector, and each vector was introduced into COS-7 cells. Two days after gene transfer, the relative luminescence intensity of luciferase secreted into each medium was compared using a luminescence reagent produced by Promega.

[7] = tested on: COS-7 cells; assay: Degree of extracellular secretion of ALucs (Example 1-4); type: cell-based, African green monkey; settings: luminescence intensity of the medium, overnight culture
Protocol: Further, each luciferase (ALuc) was introduced into COS-7 cells, culturing was performed overnight, and then the amount of each luciferase (ALuc) secreted from the cells was measured based on the luminescence intensity of the medium (FIG. 4B).

[8] = Heat resistance of ALucs in lysate (Example 1-4); type: physicochemical; settings: 80° C. for 10 minutes
Protocol: The heat resistance and degree of extracellular secretion of artificial luciferases of the present invention were measured (FIG. 4). First, to measure heat resistance, COS-7 cells containing each luciferase were lysed in cell lysis solutions produced by Promega to prepare lysates. Subsequently, same samples were allowed to stand at room temperature or heated at 80° C. for 10 minutes, and changes in luminescence intensity were compared by using a (substrate-containing) reaction solution produced by Promega.

[9] = tested on: COS-7 cells; assay: Luminescence stability of ALucs after substrate injection (Example 1-3); type: cell-based, African green monkey; settings: Promega lysis and reaction solution
Protocol: The luminescence stability of the artificial luciferases (ALucs) of the present invention was examined in various respects (FIG. 3). COS-7 cells containing each luciferase gene were cultured for 9 hours, and treated with a cell lysis solution produced by Promega for 20 minutes. Temporal changes in luciferase luminescence intensity after the introduction of a substrate-containing reaction solution produced by Promega were observed every five minutes (FIG. 3A).
This experiment was expanded to artificial luciferases ALuc16 to ALuc25 (FIG. 3BC).

[10] = tested on: COS-7 cells; assay: Comparison of luminescence intensity of ALucs (Example 1-2); type: cell-based, African green monkey; settings: COS-7 cultured overnight, Promega assay solution, LAS-4000
Description: The artificial luciferase (ALuc) genes synthesized by the above process were subcloned into mammalian cell expression vectors (pcDNA3.1 (+)). Each expression vector was transfected with African green monkey kidney-derived COS-7 cells, and the luminescence intensity, luminescence stability, and red-shifted degree of artificial luciferases (ALucs) were compared (FIGS. 2 to 5).
First, the luminescence intensity of artificial luciferases (ALucs) was compared (FIG. 2). For the comparison, COS-7 cells containing a vector encoding each luciferase were cultured overnight, and then the relative luminescence intensity was measured by using an assay solution, which is a mixture of a cell lysis solution and a substrate, produced by Promega, and a luminescence image analyzer (LAS-4000).

[11] = tested on: COS-7 cells; assay: Mammalian two-hybrid assay with luciferase reporters (Example 1-9); type: cell-based, African green monkey
Protocol: First, using a known gene engineering technique, a novel reporter expression vector obtained by inserting a gene encoding MpLuc4 or ALuc16 into a commercially available reporter expression vector (pG5) was constructed. In addition, pG5-GLuc, which is the result of the researchers' previous study, was also prepared (FIG. 9A).
In addition to any one of the above three types of reporter expression vectors, a vector (pACT-MyoD) expressing a muscle regulatory factor (MyoD) and a vector (pBIND-ID) expressing a transcriptional regulator (ID) were cotransfected into COS-7 cells. After culturing overnight in a cell culturing device, a lysis solution and a substrate solution produced by Promega were used to cause a luminescent reaction, and difference in luminescence intensity varying according to the reporter difference was compared.
Along with the measurement, the luminescence value from the supernatant (medium) during cell culturing was simultaneously measured.

Molecule | luminescence intensity of luciferase secreted into the medium [1] | time of maximum luminescence value after infusion of coelenterazine ([2]; after long-term conservation (25 days)) [min] | temporal change of luminescence after substrate injection ([2]; medium 25 days after expression) | prolonged enzymatic activity stability [3] | luminescence from cell medium [4] | luminescence value from lysate [4] | luminescence stability (general statement) [5] | relative luminescence intensity [6] | extracellular secretion [7] | remaining enzymatic (luminescence) activity vs initial ([3]; after 25 days) [%] | change of luminescence intensity by heating [8] | luminescence intensity (initial) [9] | luminescence intensity higher than that of conventional GLuc, Renilla luciferase and MpLuc4 [10] | luminescence value from the supernatant (medium) ([11]; during cell culturing) | luminescence intensity as two-hybrid reporter ([11]; lysate, equal conditions, vs MpLuc4 and GLuc reporters)
ALuc30: artificial luciferase containing a His tag, SEQ ID NO: 32 (protein, His tag; Synthetic Aluc30) MMGIKVLFALICFALVQANHHHHHHHHDIVGVEGKFGTTDLETDLFTIVEDMNVISRDTDVDANRADRGRRGKLPGKKLPLEVLKELEANAQKAGCTRGCLICLSHIKCTAKMKKWLPGRCESWEGDKETGQGGIGEAIVDIPEIPGFKELAPMEQFIAQVDLCADCTTGCLKGLANVKCSALLKKWLPSRCAGFADKIQAQVDTIKGAGGS | relatively high luminescence intensity | 12 | several times higher | maintained stable enzymatic activity until Day 25 | strong bioluminescence | extremely higher than those of conventional GLuc and MpLuc4 | remarkably stable luminescence signals |  |  |  |  |  |  |  | 
ALuc34: artificial luciferase containing a Flag-tag, SEQ ID NO: 36 (protein, Flag tag; Synthetic Aluc34) MMGIKVLFALICFALVQANMMDYKDDDDKVGVEGKFGTTDLETDLFTIVEDMNVISRDTDVDANRADRGRRGKLPGKKLPLEVLKELEANAQKAGCTRGCLICLSHIKCTAKMKKWLPGRCESWEGDKETGQGGIGEAIVDIPEIPGFKELAPMEQFIAQVDLCADCTTGCLKGLANVKCSALLKKWLPSRCAGFADKIQAQVDTIKGAGGS | relatively high luminescence intensity |  |  |  |  |  | remarkably stable luminescence signals | relatively high luminescence intensity |  |  |  |  |  |  | 
ALuc33: artificial luciferase containing an HA-tag, SEQ ID NO: 35 (protein, HA tag; Synthetic ALuc33) MMGIKVLFALICFALVQANMMYPYDVPDYAGVEGKFGTTDLETDLFTIVEDMNVISRDTDVDANRADRGRRGKLPGKKLPLEVLKELEANAQKAGCTRGCLICLSHIKCTAKMKKWLPGRCESWEGDKETGQGGIGEAIVDIPEIPGFKELAPMEQFIAQVDLCADCTTGCLKGLANVKCSALLKKWLPSRCAGFADKIQAQVDTIKGAGGS | relatively high luminescence intensity |  |  |  |  |  | remarkably stable luminescence signals | relatively high luminescence intensity |  |  |  |  |  |  | 
ALuc16: artificial luciferase, SEQ ID NO: 13 (protein, Synthetic ALuc16) MMGIKVLFALICFALVQANPTENKDDIDIVGVEGKFGTTDLETDLFTIVEDMNVISRDTDVDANRADRGRRGKLPGKKLPLEVLKELEANAQKAGCTRGCLICLSHIKCTAKMKKWLPGRCESWEGDKETGQGGIGEAIVDIPEIPGFKDLEPMEQFIAQVDLCVDCTTGCLKGLANVKCSDLLKKWLPSRCATFASKIQAQVDKIKGAGGS |  |  |  | significant decrease in enzymatic activity |  |  | remarkably stable luminescence signals |  | relatively high extracellular secretion | 20 | a remarkable reduction in luminescence intensity that may be due to heating was not observed | advantageous initial luminescence intensity | about 50 folds | slightly strong bioluminescence | highest luminescence intensity
